This is an account of results in patent US20230041268A1.

This assay deals with CMV pp65 peptide on HLA-A*02:01 (human). Kind of assay: CD137 up-regulation; peptide titration on the HLA-A02:01 positive B cell line; full-length, on cells. The settings on record: chains Valpha:Vbeta.

B1: TCR6-2 (CMV A2/pp65 495-503-specific) (protein)
chain 1: GQQLNQSPQSMFIQEGEDVSMNCTSSSIFNTWLWYKQDPGEGPVLLIALYKAGELTSNGRLTAQFGITRKDSFLNISASIPSDVGIYFCAGPMKTSYDKVIFGPGTSLSVIP
chain 2: DAGVIQSPRHEVTEMGQEVTLRCKPISGHDYLFWYRQTMMRGLELLIYFNNNVPIDDSGMPEDRFSAKMPNASFSTLKIQPSEPRDSAVYFCASSSANYGYTFGSGTRLTVV
Molecule B1 yielded an EC50 of peptide of 10 nM.
